According to patent US20230078330A1, “HUMAN ANTI-DENGUE ANTIBODIES AND METHODS OF USE THEREFOR” (published 2023):

Assays:
[1] = molecular target: DENV3 envelope (E) glycoprotein, wildtype DENV3 (strain not named at the place) (Dengue virus serotype 3)
[2] = molecular target: DENV3 envelope (E) glycoprotein, strain Phillippines/16562/1964 (Dengue virus serotype 3); experiment: live-virus capture ELISA
[3] = molecular target: DENV1 envelope (E) glycoprotein, strain Nauru/West Pac/1974 (Dengue virus serotype 1, UniProt P17763); experiment: cell-based or functional assay

B1: DENV-419 (antibody, V domains shown)
VH: EMQLQESGPRLVKPSQTLSLTCTVSGGSTSSGGYYWSWFRQYPEKGLEWIGYIFSSVTTYYNPPLKSRVTISVDTSKNQFSLKLSSVTAADTAVYYCARSLHYYQSSGFLYWGRGIPVTVSA
VL: EIVLTQSPATLSLSPGDRATLSCRASQTVGDSLAWYQQKPGQAPRLLIYDVSNRATGIPARFSGSGSGTDFTLTISSLEPEDFAVYYCQQRASFVTFGRGTKVDIK
Question: How did the FRNT EC50, Vero-81 [1] turn out when B1 was run?
Answer: Its FRNT EC50, Vero-81 is under 0.035 µg/mL.

Question: What about the EC50 [2] of the same binder?
Answer: The EC50 was 0.0444 µg/mL.

B2: DENV-144 (antibody, V domains shown)
VH: QVQLQESGPGLVKPSETLSLTCTVSGASISSYSWSWIRQPAGRGLEWLGRIYPSGNTNYSPSLKSRLTMSLDTSKNQFSMKLTSVSAADTAVYYCARDREQWPLYYGMDVWGQGTLVTVSS
VL: EIVLTQSPAILSLSPGDRATLSCRASQSVFTYLAWYQHKPGQAPRLLIYDASNRASGIPARFSGSGSGTDFTLTISSLEPEDFAVYYCQQRTKWPLAFGGGTKVEIK
Question: With B2 as the binder, how does the “FRNT EC50, Vero-81 (WUSTL)” value [3] read?
Answer: The value was 0.329 µg/mL.
